The values below come from PMC13049513, “Assembly of a homohexameric minichromosome maintenance complex is dependent on ATP and DNA” (The Journal of Biological Chemistry, 2025).

Data set [1] addresses T1, MacMCM^ΔWHD (Candidatus Mancarchaeum acidiphilum, UniProt A0A218NN99, E391Q, form not given).
T1 construct: gene Mia14_0611
Put plainly: X-ray crystal structure, […] Å. Format: binding. Conditions: crystals grown with 10 mM ATP and 10 mM MgCl2; nucleotide modelled as ADP; ATPase site at subunit interface, five of six sites.

The test system of data set [2] is MacMCMΔWHD E391Q (Mancarchaeum acidophilum), PDB:8Q67_1. Description: fluorescence anisotropy. Conditions: Anisotropy: 250 mM potassium glutamate, 20 mM Tris pH 8.0, 1 nM forked DNA, with 4 mM nucleotide and 10 mM MgCl2 where present; temperature not stated (EMSA …).
The subject of data set [3] is MacMCM E391Q (Mancarchaeum acidophilum). Description: fluorescence anisotropy. Conditions: Anisotropy: 250 mM potassium glutamate, 20 mM Tris pH 8.0, 1 nM forked DNA, with 4 mM nucleotide and 10 mM MgCl2 where present; temperature not stated (EMSA …).
Data set [4] addresses MacMCM R543E (minus-SB mutant). Put plainly: analytical size-exclusion chromatography (SEC), self-association. The settings on record: Protein samples (10 μM); Superdex S200 Increase 10/300 GL; UV absorbance at 280 nm; parent: est. 13.1; read off a plot.
Data set [5] addresses MacMCM triple site minus-SB mutant (D311K, D366K, R543E). Described as above. The settings on record: Protein samples (10 μM); Superdex S200 Increase 10/300 GL; UV absorbance at 280 nm; parent: est. 13.1; read off a plot.
For data set [6], the target named is MacMCM, minichromosome maintenance protein from Mancarchaeum acidiphilum (Mancarchaeum acidiphilum). Put plainly: SEC; analytical SEC, Superose 6 Increase 10/300 GL, 200 mM NaCl, 20 mM Tris pH 8.0, 5% glycerol; protein 10 uM with equimolar fluorescein-polyT50 ssDNA; 1 mM ATP and 10 mM MgCl2 in the buffer.
Data set [7] addresses MacMCM^ΔWHD.E391Q, MacMCM lacking the C-terminal winged-helix domain with the Walker B mutation E391Q (Mancarchaeum acidiphilum). The description is as above.
Data set [8] shares this target. Put plainly: crystal structure; MacMCM^ΔWHD.E391Q crystallised with 10 mM ATP and 10 mM MgCl2, 20 °C; ADP and phosphate in the active sites; 2.59 Å.
Data set [9] concerns the target MacMCM D311K (minus-SB mutant). Description: analytical size-exclusion chromatography (SEC), self-association. The settings on record: Protein samples (10 μM); Superdex S200 Increase 10/300 GL; UV absorbance at 280 nm; parent: est. 13.1; read off a plot.
For data set [10], the target named is MacMCM DNEK (plus-SB mutant D59N–E61K). The data set is described as above. The settings on record: Protein samples (10 μM); Superdex S200 Increase 10/300 GL; UV absorbance at 280 nm; parent: est. 13.1; read off a plot.
The target in data set [11] is MacMCM KRED (plus-SB mutant K476R–E537D). The description is as above. Conditions: Protein samples (10 μM); Superdex S200 Increase 10/300 GL; UV absorbance at 280 nm; parent: est. 13.1; read off a plot.
In data set [12] the target is MacMCM D366K (minus-SB mutant). The data set is described as above. Conditions: Protein samples (10 μM); Superdex S200 Increase 10/300 GL; UV absorbance at 280 nm; parent: est. 13.1; read off a plot.
Data set [13] deals with MacMCM NDSK (plus-SB mutant N484D–S532K). Described as above. The settings on record: Protein samples (10 μM); Superdex S200 Increase 10/300 GL; UV absorbance at 280 nm; parent: est. 13.1; read off a plot.
For data set [14], the target named is MacMCM^E391Q, Walker B mutant of MacMCM (Mancarchaeum acidiphilum). Description: SEC; analytical SEC, Superose 6 Increase 10/300 GL, 200 mM NaCl, 20 mM Tris pH 8.0, 5% glycerol; protein 10 uM with equimolar fluorescein-polyT50 ssDNA; 1 mM ATP and 10 mM MgCl2 in the buffer.
For data set [15], the target named is SsoNPfuCMCM, chimeric MCM of the N-terminal domain of SsoMCM fused with the ATPase domain of PfuMCM (Sulfolobus solfataricus | not stated) (UniProt Q9UXG1). Description: SEC-MALS; SEC-MALLS, Superose S6 Increase 10/300 GL, 200 mM KCl, 50 mM Tris-Cl pH 8.0, 5% glycerol, 0.5 mM DTT; 100 ul protein at 1 to 10 mg/ml; no ligands.
Data set [16] deals with T1, MacMCM^ΔWHD. Description: analytical SEC: ATP-dependent hexamer formation with ssDNA. Type of data set: binding. Conditions: 1 mM ATP, 10 mM MgCl2, FAM-polyT50 ssDNA, pH 8.0; Walker B mutant, no ATP hydrolysis.
In a further data set the target is T2, MacMCM (Candidatus Mancarchaeum acidiphilum, UniProt A0A218NN99, E391Q).
T2 construct: gene Mia14_0611; full length, codon-optimised gene, N-terminal His10 tag cut with TEV protease, from E. coli BL21(DE3) pLysS; monomer without ligands, homohexamer with ATP and DNA
The data set is described as above. Format: binding. Conditions: 1 mM ATP, 10 mM MgCl2, FAM-polyT50 ssDNA, pH 8.0; Walker B mutant, no ATP hydrolysis.

In data set [17] the target is T3, MacMCM triple-site plus-SB mutant (D59N–E61K, K476R–E537D, N484D–S532K).
T3 chain: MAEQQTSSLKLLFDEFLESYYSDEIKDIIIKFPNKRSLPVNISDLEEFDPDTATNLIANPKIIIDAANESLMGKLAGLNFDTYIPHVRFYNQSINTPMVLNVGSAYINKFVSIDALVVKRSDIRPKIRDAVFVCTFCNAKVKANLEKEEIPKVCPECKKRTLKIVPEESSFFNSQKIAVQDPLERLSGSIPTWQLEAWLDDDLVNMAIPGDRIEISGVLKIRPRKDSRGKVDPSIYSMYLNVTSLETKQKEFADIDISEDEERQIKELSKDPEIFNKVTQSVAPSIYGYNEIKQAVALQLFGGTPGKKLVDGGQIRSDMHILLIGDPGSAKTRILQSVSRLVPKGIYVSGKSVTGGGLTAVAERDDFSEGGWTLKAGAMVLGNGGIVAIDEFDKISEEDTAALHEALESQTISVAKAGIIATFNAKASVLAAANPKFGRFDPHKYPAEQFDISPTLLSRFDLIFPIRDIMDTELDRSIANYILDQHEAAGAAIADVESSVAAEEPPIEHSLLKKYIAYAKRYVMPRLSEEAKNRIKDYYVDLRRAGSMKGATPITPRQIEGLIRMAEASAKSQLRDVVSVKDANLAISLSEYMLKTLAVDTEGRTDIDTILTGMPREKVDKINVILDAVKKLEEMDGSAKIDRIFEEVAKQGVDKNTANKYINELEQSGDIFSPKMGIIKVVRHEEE
Put plainly: analytical size-exclusion chromatography (SEC), self-association. The settings on record: chain shown with the change; Protein samples (10 μM); Superdex S200 Increase 10/300 GL; UV absorbance at 280 nm; parent: est. 13.1; read off a plot.

T1 sequence (A0A218NN99 entry or part of it E391Q, form open): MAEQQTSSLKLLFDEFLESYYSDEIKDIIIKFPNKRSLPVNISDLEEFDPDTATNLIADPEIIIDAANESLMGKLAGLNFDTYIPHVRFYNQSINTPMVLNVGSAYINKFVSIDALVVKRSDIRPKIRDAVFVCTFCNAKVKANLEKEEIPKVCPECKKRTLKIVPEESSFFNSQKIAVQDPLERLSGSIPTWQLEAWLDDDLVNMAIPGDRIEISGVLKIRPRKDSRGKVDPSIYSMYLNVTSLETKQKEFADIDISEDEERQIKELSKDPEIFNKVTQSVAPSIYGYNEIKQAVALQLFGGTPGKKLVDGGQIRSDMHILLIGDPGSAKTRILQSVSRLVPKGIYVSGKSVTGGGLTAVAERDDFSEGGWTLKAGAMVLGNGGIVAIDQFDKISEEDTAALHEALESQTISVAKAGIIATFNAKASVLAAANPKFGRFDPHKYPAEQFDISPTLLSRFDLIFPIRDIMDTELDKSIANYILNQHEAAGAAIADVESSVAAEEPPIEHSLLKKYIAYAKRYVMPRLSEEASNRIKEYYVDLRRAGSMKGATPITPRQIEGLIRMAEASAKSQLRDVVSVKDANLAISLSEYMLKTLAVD
T2 sequence (A0A218NN99 entry or part of it E391Q): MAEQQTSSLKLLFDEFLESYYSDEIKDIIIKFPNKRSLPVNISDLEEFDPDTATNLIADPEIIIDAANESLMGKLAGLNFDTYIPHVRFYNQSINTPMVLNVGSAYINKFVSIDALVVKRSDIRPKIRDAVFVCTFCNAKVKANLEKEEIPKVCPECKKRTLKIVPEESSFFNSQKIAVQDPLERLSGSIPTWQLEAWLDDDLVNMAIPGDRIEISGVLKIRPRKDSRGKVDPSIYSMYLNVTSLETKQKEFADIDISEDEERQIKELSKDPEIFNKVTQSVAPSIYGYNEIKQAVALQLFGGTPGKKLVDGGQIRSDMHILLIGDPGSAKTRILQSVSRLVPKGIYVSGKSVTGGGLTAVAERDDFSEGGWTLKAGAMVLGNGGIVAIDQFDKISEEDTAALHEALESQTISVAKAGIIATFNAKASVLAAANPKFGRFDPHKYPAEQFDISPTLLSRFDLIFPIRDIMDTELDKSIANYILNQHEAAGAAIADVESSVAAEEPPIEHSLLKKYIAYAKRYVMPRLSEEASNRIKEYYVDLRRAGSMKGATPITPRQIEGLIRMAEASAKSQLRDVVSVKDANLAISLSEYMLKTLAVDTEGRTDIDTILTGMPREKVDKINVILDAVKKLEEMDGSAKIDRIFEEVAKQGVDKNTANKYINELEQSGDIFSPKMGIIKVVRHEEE

`Nc1ncnc2c1ncn2[C@@H]1O[C@H](COP(=O)(O)OP(=O)(O)O)[C@@H](O)[C@H]1O` [ADP]: the “X-ray crystal structure, 2.6 Å” value at MacMCM^ΔWHD [1] is on record as “ADP was identified in five of the six ATPase active sites”.

For “GGGACGCGTCGGCCTGGCACGTCGGCCGCTGCGGCCAGGCACCCGATGGCGTTTGTTTGTTTGTTTGTTTGTTT / TTTGTTTGTTTGTTTGTTTGTTTGTTTGTTTGCCGACGTGCCAGGCCGACGCGTCCC [forked DNA]”, the Kd in [2] was found to be 114 nM; in [3], 780 nM.

For the molecule “MacMCM, minichromosome maintenance protein from Mancarchaeum acidiphilum R543E”, the other: SEC peak retention volume in data set [4] turned out to be 13.3 mL.

On to “MacMCM, minichromosome maintenance protein from Mancarchaeum acidiphilum D311K; D366K; R543E”, for which the other: SEC peak retention volume in data set [5] stood at 13.3 mL.

Turning to “MacMCM, minichromosome maintenance protein from Mancarchaeum acidiphilum (enzyme)”, in [6], the stoichiometry N is 6.

Turning to “MacMCM^ΔWHD.E391Q, MacMCM lacking the C-terminal winged-helix domain with the Walker B mutation E391Q (domain or fragment)”, the stoichiometry N in data set [7] and in [8] was 6 in each case.

For “MacMCM, minichromosome maintenance protein from Mancarchaeum acidiphilum D311K”, the other: SEC peak retention volume in data set [9] was 13.4 mL.

Regarding “MacMCM, minichromosome maintenance protein from Mancarchaeum acidiphilum D59N; E61K”, in [10], the other: SEC peak retention volume worked out at 12.9 mL.

With “MacMCM, minichromosome maintenance protein from Mancarchaeum acidiphilum K476R; E537D”, the other: SEC peak retention volume in data set [11] came out at 13.3 mL.

Turning to “MacMCM, minichromosome maintenance protein from Mancarchaeum acidiphilum D366K”, the other: SEC peak retention volume in data set [12] worked out at 13.4 mL.

Take “MacMCM, minichromosome maintenance protein from Mancarchaeum acidiphilum N484D; S532K”: in data set [13], the other: SEC peak retention volume is 13 mL.

“MacMCM^E391Q, Walker B mutant of MacMCM (enzyme)” showed a stoichiometry N in [14] of 6.

Regarding “SsoNPfuCMCM, chimeric MCM of the N-terminal domain of SsoMCM fused with the ATPase domain of PfuMCM (from UniProt Q9UXG1 2-321) (enzyme)”, the stoichiometry N in data set [15] is 6.

As for `Nc1ncnc2c1ncn2[C@@H]1O[C@H](COP(=O)(O)OP(=O)(O)OP(=O)(O)O)[C@@H](O)[C@H]1O` [ATP], the “analytical SEC: ATP-dependent hexamer formation with ssDNA” value on MacMCM^ΔWHD [16] is “both MacMCM^E391Q and MacMCM^ΔWHD.E391Q coeluted with ssDNA at elution volumes consistent with a homohexamer”; on MacMCM, “both MacMCM^E391Q and MacMCM^ΔWHD.E391Q coeluted with ssDNA at elution volumes consistent with a homohexamer”.

B1: MacMCM, minichromosome maintenance protein from Mancarchaeum acidiphilum D59N; E61K; K476R; E537D; N484D; S532K (protein)
chain: T3 chain
On to B1, for which the other: SEC peak retention volume in data set [17] stood at 11.6 mL.
